# Source: paper PMC11336141
# Target: human somatostatin receptor 2, Tango construct (human) (UniProt P30874)
# Sequence (P30874 whole entry): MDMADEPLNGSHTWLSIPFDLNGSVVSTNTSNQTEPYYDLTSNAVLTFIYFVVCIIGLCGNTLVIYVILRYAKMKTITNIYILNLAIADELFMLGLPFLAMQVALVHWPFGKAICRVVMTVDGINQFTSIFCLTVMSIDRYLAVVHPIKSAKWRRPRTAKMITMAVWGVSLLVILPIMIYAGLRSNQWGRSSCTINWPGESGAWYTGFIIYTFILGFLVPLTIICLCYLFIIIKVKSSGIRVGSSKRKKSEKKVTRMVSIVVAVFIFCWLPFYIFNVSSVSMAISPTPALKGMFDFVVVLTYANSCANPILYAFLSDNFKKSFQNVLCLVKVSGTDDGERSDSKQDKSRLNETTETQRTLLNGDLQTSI
substance,measurement,value
octreotide (peptide),"EC50, PRESTO-Tango β-arrestin recruitment assay",900 pM
